For this data set, the system named is ATP. Briefly: switch fluorescence ratio, 500 uM ATP over buffer (Cy3 cluster intensity, sum of 5 cycles each) (fold (ratio)); higher = stronger signal-on switching upon ATP binding; sequences stand for … in TCGTCGGCAGCGTCAGATGTGTATAAGAGACAGTTTTTTTTTTTTTTTTTTTTTTTTT…TC. The note with it: aptamer strand: ATP DNA aptamer (quencher-CACCTGGGGGAGTATTGCGGAGGAAGG + anchor), 100 nM annealed; ATP concentration: 500 uM. In outline: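 Imaging in selection buffer was followed by imaging after 15 min with 500 uM ATP at 22 °C, for Cy3-labelled switching-strand clusters annealed to 100 nM quencher-labelled ATP aptamer on a modified Illumina MiSeq flow-cell. Five of these buffer/ATP cycles ran, separated by NaOH stripping and re-annealing. The fluorescence ratio per cluster is summed target-cycle over summed buffer-cycle Cy3 intensity, averaged per switch-domain sequence; clusters outside 100-1000 RFU were removed.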

± gives the standard deviation of the averaged measurements.
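Further: ATP exposure 15 min at 22 °C before imaging.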

ATGGGGAGAA: the switch fluorescence ratio was found to be 1.01 ± 0.029.

Regarding ATGGGGAGTT, the switch fluorescence ratio is 0.972 ± 0.022. The result for ATGGGGATCG reads 0.99341 ± 0.00035; that for ATGGGGATGT, 1.03 ± 0.079; that for ATGGGGGAAT, 1.0184 ± 0.00041. The value for ATGGGGGAGT was 0.9768 ± 0.0031; that for ATGGGGGCTA was 0.979 ± 0.068; that for ATGGGGGGCG was 1.02 ± 0.053. The value for ATGGGGGGCT was 0.987 ± 0.028. In the case of ATGGGGGTAT, the switch fluorescence ratio is 0.987 ± 0.019.

Take ATGGGGGTTT: the switch fluorescence ratio was found to be 0.984 ± 0.042. The value for ATGGGGTCCA was 0.976 ± 0.042; that for ATGGGGTGCT was 0.986 ± 0.035.

For ATGGGGTTCT, the switch fluorescence ratio was determined as 0.992 ± 0.022. On to ATGGGGTTTC, for which the switch fluorescence ratio was 1.01 ± 0.051. The result for ATGGGTGAAG reads 0.9848 ± 0.0096; that for ATGGGTGTTG, 0.992 ± 0.022.

For ATGGGTTGGG, the switch fluorescence ratio is 0.991 ± 0.017. The value for ATGGGTTGTG was 1 ± 0.03. The result for ATGGTAACGT reads 1.01 ± 0.044; that for ATGGTAAGGT, 1 ± 0.014; that for ATGGTAGCCG, 0.981 ± 0.012.

ATGGTAGGTA: the switch fluorescence ratio was 1 ± 0.031. On to ATGGTATGCT, for which the switch fluorescence ratio was 0.992 ± 0.022. The value for ATGGTATTTC was 0.9887 ± 0.0013; that for ATGGTCGAGC was 0.9822 ± 0.0076. Consider ATGGTCGATG, for which the switch fluorescence ratio is 0.965 ± 0.02. The value for ATGGTCGGCA was 0.985 ± 0.034. On to ATGGTGAGGC, for which the switch fluorescence ratio came to 0.95 ± 0.018.

On to ATGGTGCCCC, for which the switch fluorescence ratio was determined as 1.09 ± 0.049.

Consider ATGGTGCTGA, for which the switch fluorescence ratio was determined as 1.01 ± 0.014. Consider ATGGTGTCAG, for which the switch fluorescence ratio came out at 0.994 ± 0.046.

On to ATGGTGTGAG, for which the switch fluorescence ratio turned out to be 1.02 ± 0.016. The value for ATGGTGTGTG was 1.01 ± 0.033; that for ATGGTTAGAT was 1.01 ± 0.017. The value for ATGGTTATCT was 1.01 ± 0.034; that for ATGGTTCCCC was 1.03 ± 0.013.

As for ATGGTTCGCG, the switch fluorescence ratio came out at 1 ± 0.015. The result for ATGGTTGAGC reads 1.03 ± 0.024; that for ATGGTTGCAG, 0.9553 ± 0.004; that for ATGGTTGGAC, 0.9925 ± 0.0094. The value for ATGGTTGGGG was 0.994 ± 0.031. The value for ATGGTTTGAG was 0.997 ± 0.026; that for ATGGTTTTGC was 0.977 ± 0.029; that for ATGGTTTTTG was 1.01 ± 0.013. In the case of ATGTAAAAAC, the switch fluorescence ratio is 0.965 ± 0.029. The value for ATGTAAAATG was 1.04 ± 0.066.

Regarding ATGTAAAGTC, the switch fluorescence ratio is 1.018 ± 0.0031.

As for ATGTAAATTT, the switch fluorescence ratio was 1.01 ± 0.005. The value for ATGTACCGCG was 1.06 ± 0.016. As to ATGTACGCGT, the switch fluorescence ratio was 0.995 ± 0.024. The value for ATGTAGTGGC was 0.995 ± 0.049. The result for ATGTATAAAG reads 0.987 ± 0.03; that for ATGTATAGAG, 1.03 ± 0.026. The result for ATGTATAGTT reads 1.02 ± 0.017. For the sequence ATGTATCATA, the switch fluorescence ratio is 0.993 ± 0.025. Turning to ATGTATGGGT, the switch fluorescence ratio is 0.992 ± 0.036. The value for ATGTATTCGA was 0.996 ± 0.027; that for ATGTATTCGC was 0.983 ± 0.014. The result for ATGTATTGGT reads 0.991 ± 0.026. The result for ATGTCAAAAG reads 1 ± 0.022; that for ATGTCAAGGA, 0.985 ± 0.042; that for ATGTCAGTGT, 0.985 ± 0.074. Turning to ATGTCCACTT, the switch fluorescence ratio amounted to 1 ± 0.036. The result for ATGTCCTTAT reads 0.988 ± 0.029. The value for ATGTCTTTGA was 1.03 ± 0.038. The result for ATGTGAATTG reads 1.01 ± 0.019; that for ATGTGAGCGG, 1.01 ± 0.038; that for ATGTGCAGGG, 1.03 ± 0.013.

ATGTGGAGGG: the switch fluorescence ratio came to 0.983 ± 0.033. As to ATGTGGCTGA, the switch fluorescence ratio is 1.021 ± 0.0038. For ATGTGGGAGG, the switch fluorescence ratio is 1 ± 0.016.

With ATGTGGGAGT, the switch fluorescence ratio came to 0.979 ± 0.034.

In the case of ATGTGGGATA, the switch fluorescence ratio worked out at 1.01 ± 0.063. The result for ATGTGGGATT reads 0.965 ± 0.013; that for ATGTGGGGCC, 0.995 ± 0.042; that for ATGTGGTATG, 0.984 ± 0.031. The result for ATGTGTGAAT reads 0.997 ± 0.015; that for ATGTGTGGCT, 1.01 ± 0.022. The value for ATGTGTGTAT was 1.12 ± 0.2; that for ATGTGTTAGC was 0.999 ± 0.058.

On to ATGTTACCGG, for which the switch fluorescence ratio was found to be 1.054 ± 0.0038. The value for ATGTTACGTT was 1.02 ± 0.021; that for ATGTTAGGAA was 1 ± 0.0065; that for ATGTTATTGC was 1 ± 0.022. The result for ATGTTATTTG reads 0.963 ± 0.022; that for ATGTTATTTT, 1.013 ± 0.0049. The value for ATGTTGAAGC was 0.9619 ± 0.0078; that for ATGTTGATCT was 0.983 ± 0.024. Regarding ATGTTGGGCA, the switch fluorescence ratio amounted to 1.01 ± 0.028. The result for ATGTTGGTAT reads 1 ± 0.022; that for ATGTTGTCGA, 1.01 ± 0.031. The result for ATGTTGTTGT reads 0.981 ± 0.033; that for ATGTTTAGAA, 0.9607 ± 0.0073; that for ATGTTTTACG, 0.988 ± 0.049.

Take ATGTTTTAGA: the switch fluorescence ratio is 0.95 ± 0.015. The value for ATGTTTTGCT was 0.965 ± 0.029.

On to ATGTTTTTTT, for which the switch fluorescence ratio was 0.9915 ± 0.0073. The value for ATTAAACCGG was 0.997 ± 0.024; that for ATTAAAGCGT was 1 ± 0.016. The result for ATTAAAGGAT reads 0.995 ± 0.033; that for ATTAAAGGGA, 1 ± 0.037. The result for ATTAAAGGGC reads 0.992 ± 0.013; that for ATTAAATAG, 0.9803 ± 0.0081; that for ATTAAATTAG, 1.04 ± 0.051. Regarding ATTAAGACAG, the switch fluorescence ratio amounted to 0.973 ± 0.032. Regarding ATTAAGGAGG, the switch fluorescence ratio was found to be 0.99014 ± 0.00011. The value for ATTAAGGGTG was 1.04 ± 0.093; that for ATTAAGGTAG was 1 ± 0.014. The value for ATTAAGGTCA was 1.064 ± 0.0069.

With ATTAAGTGTG, the switch fluorescence ratio was 0.99638 ± 0.00091. The result for ATTAATATGT reads 0.999 ± 0.023.

For ATTAATCGAC, the switch fluorescence ratio stood at 1.03 ± 0.092.

As to ATTAATCTGA, the switch fluorescence ratio stood at 0.96 ± 0.029. The result for ATTAATTATC reads 0.993 ± 0.031; that for ATTAATTGTT, 0.993 ± 0.012; that for ATTACAGGAC, 1.08 ± 0.012. The value for ATTACCGGGG was 1.05 ± 0.035; that for ATTACGGGGG was 1.01 ± 0.088. As for ATTACGTCCT, the switch fluorescence ratio turned out to be 1.03 ± 0.036.
